Assay results reported in the Immune Epitope Database (IEDB).

Tests used:
HLA-A*03:01 [1] = assay: IEDB peptide-MHC binding, purified MHC/competitive/fluorescence; ≥ and ≤ were set here for values at or beyond the usual limits of such assays
HLA-A*11:01 [2] = assay: as above
HLA-A*31:01 = assay: IEDB peptide-MHC binding, purified MHC/competitive/fluorescence; filed as Kd, often an IC50 or EC50 that approximates it; ≥ and ≤ were set here for values at or beyond the usual limits of such assays
HLA-B*15:01 [3] = assay: as above; details: source organism: Escherichia coli 536
HLA-A*03:01 [4] = assay: as above
HLA-A*30:02 = assay: IEDB peptide-MHC binding, purified MHC/competitive/radioactivity; filed as Kd, often an IC50 or EC50 that approximates it; ≥ and ≤ were set here for values at or beyond the usual limits of such assays; details: source organism: Dengue virus 4 Philippines/H241/1956
HLA-B*15:01 [5] = assay: as above; details: source organism: Dengue virus 4 Philippines/H241/1956
HLA-A*11:01 [6] = assay: IEDB peptide-MHC binding, purified MHC/direct/fluorescence; filed as Kd, often an IC50 or EC50 that approximates it; ≥ and ≤ were set here for values at or beyond the usual limits of such assays; details: source organism: dengue virus type 4
HLA-B*58:01 = assay: as above; details: source organism: Giardia lamblia ATCC 50803
HLA-B*15:17 [7] = assay: as above; details: source organism: Giardia lamblia ATCC 50803
HLA-B*57:01 [8] = assay: as above; details: source organism: Giardia lamblia ATCC 50803
HLA-A*29:02 [9] = assay: as above; details: source organism: Mycobacterium tuberculosis str. Haarlem
HLA-A*01:01 = assay: as above; details: source organism: Mycobacterium tuberculosis
HLA-B*83:01 = assay: IEDB peptide-MHC binding, purified MHC/competitive/fluorescence; filed as Kd, often an IC50 or EC50 that approximates it; ≥ and ≤ were set here for values at or beyond the usual limits of such assays; details: source organism: Mycobacterium tuberculosis variant bovis
HLA-B*45:06 = assay: as above; details: source organism: Mycobacterium tuberculosis variant bovis
HLA-B*15:42 = assay: as above; details: source organism: Mycobacterium tuberculosis variant bovis
HLA-B*40:01 = assay: IEDB peptide-MHC binding, purified MHC/direct/fluorescence; filed as Kd, often an IC50 or EC50 that approximates it; ≥ and ≤ were set here for values at or beyond the usual limits of such assays; details: source organism: Mycobacterium tuberculosis variant bovis
HLA-A*03:01 [10] = assay: as above
HLA-A*02:03 = assay: as above; details: source organism: Mycobacterium tuberculosis str. Haarlem
HLA-A*69:01 [11] = assay: as above; details: source organism: Mycobacterium tuberculosis
HLA-A*29:02 [12] = assay: IEDB peptide-MHC binding, purified MHC/competitive/fluorescence; filed as Kd, often an IC50 or EC50 that approximates it; ≥ and ≤ were set here for values at or beyond the usual limits of such assays
HLA-B*51:01 = assay: as above; details: source organism: Kurkino virus
HLA-A*69:01 [13] = assay: as above; details: source organism: Kurkino virus
HLA-B*18:01 = assay: as above; details: source organism: Kurkino virus
HLA-B*15:17 [14] = assay: as above; details: source organism: Kurkino virus
HLA-B*46:01 = assay: as above; details: source organism: Kurkino virus
HLA-A*26:01 = assay: as above; details: source organism: Kurkino virus
HLA-B*57:01 [15] = assay: as above; details: source organism: Kurkino virus
HLA-B*27:03 = assay: as above; details: source organism: Kurkino virus
HLA-B*39:01 = assay: as above; details: source organism: Kurkino virus
HLA-A*02:12 = assay: IEDB peptide-MHC binding, purified MHC/direct/fluorescence; filed as Kd, often an IC50 or EC50 that approximates it; ≥ and ≤ were set here for values at or beyond the usual limits of such assays; details: source organism: Convict Creek 107 virus
HLA-A*02:19 = assay: as above; details: source organism: Convict Creek 107 virus
[16] = source organism: Vaccinia virus WR
[17] = source organism: Escherichia coli 536
[18] = source organism: Sudan ebolavirus
[19] = source organism: Vaccinia virus Copenhagen
[20] = source organism: Zaire ebolavirus

**Q.** With KHVGLITCK as the sequence, how does the IC50 (HLA-A*03:01 [1]; [16]) read?
**A.** 47200 nM

**Q.** What about the IC50 (HLA-A*11:01 [2]; [16]) of the same sequence?
**A.** ≥ 80000 nM

**Q.** Which results are given for KLIAVPHTK?
**A.** Kd (HLA-A*31:01; [17]): 900 nM; Kd (HLA-B*15:01 [3]): ≥ 20000 nM; Kd (HLA-A*03:01 [4]; [17]): 135 nM

**Q.** For KVASAGISY, which Kd (HLA-A*30:02) is on record?
**A.** 40.4 nM

**Q.** And the Kd (HLA-B*15:01 [5])?
**A.** 1.85 nM

**Q.** What about the Kd (HLA-A*31:01; source organism: dengue virus type 4) of the same sequence?
**A.** ≥ 20000 nM

**Q.** And the Kd (HLA-A*11:01 [6])?
**A.** 52.1 nM

**Q.** How did the Kd (HLA-A*31:01; source organism: Kurkino virus) turn out when MLYKSSKSR was run?
**A.** 51.7 nM

**Q.** What about the Kd (HLA-A*03:01 [4]; source organism: Kurkino virus) of the same sequence?
**A.** 3.2 nM

**Q.** How did the Kd (HLA-B*58:01) turn out when NTWNQITKF was run?
**A.** 905 nM

**Q.** What about the Kd (HLA-B*15:17 [7]) of the same sequence?
**A.** 76.4 nM

**Q.** What about the Kd (HLA-B*57:01 [8]) of the same sequence?
**A.** 1110 nM

**Q.** Which results are given for PTAIYTLEY?
**A.** Kd (HLA-A*29:02 [9]): 6 nM; Kd (HLA-A*01:01): 9.2 nM

**Q.** With QLPRDKFRK as the sequence, how does the IC50 (HLA-A*03:01 [1]; [18]) read?
**A.** 3380 nM

**Q.** And the IC50 (HLA-A*11:01 [2]; [18])?
**A.** 723 nM

**Q.** With REAPYELNI as the sequence, how does the Kd (HLA-B*83:01) read?
**A.** ≥ 5000 nM

**Q.** What about the Kd (HLA-B*45:06) of the same sequence?
**A.** ≥ 5000 nM

**Q.** And the Kd (HLA-B*15:42)?
**A.** ≥ 5000 nM

**Q.** What about the Kd (HLA-B*40:01) of the same sequence?
**A.** 62.8 nM

**Q.** RVIPPSLLR was tested. Which Kd (HLA-A*31:01; source organism: Mycobacterium tuberculosis C) did it give?
**A.** 13.5 nM

**Q.** What about the Kd (HLA-A*03:01 [10]; source organism: Mycobacterium leprae) of the same sequence?
**A.** 1750 nM

**Q.** Which IC50 (HLA-A*11:01 [2]; [19]) does the source give for TITEKTFKD here?
**A.** 36500 nM

**Q.** With TKLYKNKSK as the sequence, how does the IC50 (HLA-A*03:01 [1]; [19]) read?
**A.** 44300 nM

**Q.** And the IC50 (HLA-A*11:01 [2]; [19])?
**A.** 57500 nM

**Q.** How did the IC50 (HLA-A*11:01 [2]; source organism: Vaccinia virus) turn out when TTQSIHENK was run?
**A.** 6040 nM

**Q.** Which IC50 (HLA-A*03:01 [1]; [18]) does the source give for VIAFLILAK here?
**A.** 1690 nM

**Q.** And the IC50 (HLA-A*11:01 [2]; [18])?
**A.** 564 nM

**Q.** With VLLDSITRL as the sequence, how does the Kd (HLA-A*02:03) read?
**A.** ≤ 1 nM

**Q.** And the Kd (HLA-A*69:01 [11])?
**A.** 4350 nM

**Q.** How did the Kd (HLA-A*29:02 [12]; source organism: Vibrio cholerae NCTC 8457) turn out when VMADFDLEM was run?
**A.** ≤ 0.1 nM

**Q.** VQQGIVRQR was tested. Which IC50 (HLA-A*03:01 [1]; [20]) did it give?
**A.** ≥ 160000 nM

**Q.** What about the IC50 (HLA-A*11:01 [2]; [20]) of the same sequence?
**A.** 8370 nM

**Q.** Which results are given for WFLYVSQQI?
**A.** Kd (HLA-B*51:01): ≥ 20000 nM; Kd (HLA-A*69:01 [13]): ≥ 20000 nM; Kd (HLA-B*18:01): ≥ 20000 nM; Kd (HLA-B*15:17 [14]): ≥ 20000 nM; Kd (HLA-B*46:01): ≥ 20000 nM; Kd (HLA-A*26:01): ≥ 20000 nM; Kd (HLA-B*57:01 [15]): ≥ 20000 nM; Kd (HLA-B*27:03): ≥ 20000 nM; Kd (HLA-B*39:01): ≥ 20000 nM; Kd (HLA-A*02:12): ≥ 20000 nM; Kd (HLA-A*02:19): ≥ 20000 nM; Kd (HLA-A*03:01 [10]; source organism: Convict Creek 107 virus): ≥ 20000 nM

**Q.** With YFNDPALGH as the sequence, how does the Kd (HLA-A*29:02 [12]; source organism: Giardia lamblia ATCC 50803) read?
**A.** 114 nM

**Q.** With YYFDIYNKQ as the sequence, how does the Kd (HLA-A*29:02 [12]; source organism: Listeria monocytogenes EGD-e) read?
**A.** 73 nM
